Measurements reported in paper PMC3322874 (The Journal of Biological Chemistry, 2012).

Target: the molecule itself
Test: crystal structure

B1: R182K-AfUGM (enzyme, Aspergillus fumigatus)
chain: THPDISVDVLVIGAGPTGLGAAKRLNQIDGPSWMIVDSNETPGGLASTDVTPEGFLYDVGGHVIFSHYKYFDDCLDEALPKEDDWYTHQRISYVRCQGQWVPYPFQNNISMLPKEEQVKCIDGMIDAALEARVANTKPKTFDEWIVRMMGTGIADLFMRPYNFKVWAVPTTKMQCAWLGEKVAAPNLKAVTTNVILGKTAGNWGPNATFRFPARGGTGGIWIAVANTLPKEKTRFGEKGKVTKVNANNKTVTLQDGTTIGYKKLVSTMAVDFLAEAMNDQELVGLTKQLFYSSTHVIGVGVRGSRPERIGDKCWLYFPEDNCPFYRATIFSNYSPYNQPEASKKLPTMQLADGSRPQSTEAKEGPYWSIMLEVSESSMKPVNQETILADCIQGLVNTEMLKPTDEIVSTYHRRFDHGYPTPTLEREGALTQILPKLQDKDIWSRGRFGSWRYEVGNQDHSFMLGVEAVDNIVNGAVELTLNYPDFVNGRQNTERRLVDGAQVFAKSKAQ
- stoichiometry N: 4

B2: R327K-AfUGM (enzyme, Aspergillus fumigatus)
chain: THPDISVDVLVIGAGPTGLGAAKRLNQIDGPSWMIVDSNETPGGLASTDVTPEGFLYDVGGHVIFSHYKYFDDCLDEALPKEDDWYTHQRISYVRCQGQWVPYPFQNNISMLPKEEQVKCIDGMIDAALEARVANTKPKTFDEWIVRMMGTGIADLFMRPYNFKVWAVPTTKMQCAWLGERVAAPNLKAVTTNVILGKTAGNWGPNATFRFPARGGTGGIWIAVANTLPKEKTRFGEKGKVTKVNANNKTVTLQDGTTIGYKKLVSTMAVDFLAEAMNDQELVGLTKQLFYSSTHVIGVGVRGSRPERIGDKCWLYFPEDNCPFYKATIFSNYSPYNQPEASKKLPTMQLADGSRPQSTEAKEGPYWSIMLEVSESSMKPVNQETILADCIQGLVNTEMLKPTDEIVSTYHRRFDHGYPTPTLEREGALTQILPKLQDKDIWSRGRFGSWRYEVGNQDHSFMLGVEAVDNIVNGAVELTLNYPDFVNGRQNTERRLVDGAQVFAKSKAQ
- stoichiometry N: 4
